Key:
[1] = molecular target: HU-3pE-beta-Amyloid (human); assay: SPR; HU-3pE-beta-Amyloid 0.6 to 4.5 nM
[2] = molecular target: cynomolgus FcRn (cynomolgus) (UniProt Q8SPV9); assay: FcRn binding affinity; method not described; average of 5-6 replicates
human FcRn (human) = human FcRn (human) (UniProt P55899); assay: as above
Sequence of human FcRn (human) (P55899 24-297 limits assumed, chain 1 of 2): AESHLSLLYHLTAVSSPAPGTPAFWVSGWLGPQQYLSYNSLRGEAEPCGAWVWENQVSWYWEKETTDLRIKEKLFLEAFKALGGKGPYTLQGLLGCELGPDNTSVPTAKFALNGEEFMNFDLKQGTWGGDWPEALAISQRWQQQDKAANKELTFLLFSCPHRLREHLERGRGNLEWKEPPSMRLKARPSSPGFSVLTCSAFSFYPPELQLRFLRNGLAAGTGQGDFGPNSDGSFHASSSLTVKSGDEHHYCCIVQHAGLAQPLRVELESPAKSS
Sequence of human FcRn (human) (P61769 21-119 limits assumed, chain 2 of 2, further chain): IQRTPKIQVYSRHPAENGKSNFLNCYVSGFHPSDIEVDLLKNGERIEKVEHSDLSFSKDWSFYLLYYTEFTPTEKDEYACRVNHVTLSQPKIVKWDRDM

Sequence of cynomolgus FcRn (cynomolgus) (Q8SPV9 24-297 limits assumed, chain 1 of 2): as the sequence (P55899 24-297 limits assumed, chain 1 of 2) above, with N39D, E44Q, G99S, S189G, S190N, L217M, S269T counted along it
Sequence of cynomolgus FcRn (cynomolgus) (Q8SPW0 21-119 limits assumed, chain 2 of 2, further chain): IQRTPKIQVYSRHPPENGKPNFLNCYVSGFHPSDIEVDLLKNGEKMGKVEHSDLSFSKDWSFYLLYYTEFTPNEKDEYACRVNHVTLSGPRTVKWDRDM

What does the source list for Control mAb (antibody)?
Kd [1]: 0.0379 nM; koff [1]: 0.000156 s⁻¹; kon [1]: 4.11e+06 M⁻¹ s⁻¹

What does the source list for IgG1 control (antibody)?
Kd [2]: 430 nM; Kd (human FcRn (human)): 443 nM
